The values below come from patent EP4603109A1 (Sichuan Kelun-Biotech Biopharmaceutical Co., Ltd., dated 2024).

In experiment [1] the target is T1, B7-H3 on human tumor cell lines (HT29, NCI-N87, HCC1806, HCC827, A375) (human, UniProt Q5ZPR3 29-534).
T1 construct: whole, on cells
T1 sequence (looked up): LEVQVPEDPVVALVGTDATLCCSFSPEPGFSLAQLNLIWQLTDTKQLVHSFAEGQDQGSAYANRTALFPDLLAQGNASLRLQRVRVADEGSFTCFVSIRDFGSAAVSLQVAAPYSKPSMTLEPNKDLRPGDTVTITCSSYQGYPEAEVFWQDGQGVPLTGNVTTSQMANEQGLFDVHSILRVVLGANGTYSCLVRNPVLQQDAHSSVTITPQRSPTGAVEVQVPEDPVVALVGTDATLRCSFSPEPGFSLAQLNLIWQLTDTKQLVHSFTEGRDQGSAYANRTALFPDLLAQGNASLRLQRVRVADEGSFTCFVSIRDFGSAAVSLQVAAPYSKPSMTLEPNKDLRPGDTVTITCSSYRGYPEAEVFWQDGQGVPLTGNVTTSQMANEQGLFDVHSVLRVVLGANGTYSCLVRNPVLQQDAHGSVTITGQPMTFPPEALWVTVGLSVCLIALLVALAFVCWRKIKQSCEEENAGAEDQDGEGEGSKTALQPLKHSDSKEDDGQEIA
Kind of experiment: flow cytometry on HT29 cells (experiment 2).

In experiment [2] the target is T1, B7-H3 on human tumor cell lines (HT29, …). Kind of experiment: flow cytometry on HCC827 cells (experiment 2). For orientation: In flow cytometry, cells or beads pass a laser one at a time.
For experiment [3], the target named is T2, human B7-H3-2Ig-his protein (human, UniProt Q5ZPR3-2 29-245, limits assumed).
T2 construct: the 2Ig form is its isoform 2; not shown: His tag
T2 sequence (looked up): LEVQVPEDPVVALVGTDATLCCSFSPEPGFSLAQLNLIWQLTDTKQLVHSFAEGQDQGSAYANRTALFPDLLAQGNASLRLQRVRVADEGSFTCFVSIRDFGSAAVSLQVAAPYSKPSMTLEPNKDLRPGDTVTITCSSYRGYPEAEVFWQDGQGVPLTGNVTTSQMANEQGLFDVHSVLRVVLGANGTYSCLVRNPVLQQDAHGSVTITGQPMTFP
As to the kind of experiment: BLI (ForteBio), ADC on Protein A sensor, antigen 200-3.125 nM, 1:1 global fit (result 2). (Biolayer interferometry detects binding as a change in optical thickness at a sensor tip.)

The target in experiment [4] is T3, human B7-H3-4Ig-his protein (human, UniProt Q5ZPR3 29-461, limits assumed).
T3 construct: not shown: His tag
T3 sequence (looked up): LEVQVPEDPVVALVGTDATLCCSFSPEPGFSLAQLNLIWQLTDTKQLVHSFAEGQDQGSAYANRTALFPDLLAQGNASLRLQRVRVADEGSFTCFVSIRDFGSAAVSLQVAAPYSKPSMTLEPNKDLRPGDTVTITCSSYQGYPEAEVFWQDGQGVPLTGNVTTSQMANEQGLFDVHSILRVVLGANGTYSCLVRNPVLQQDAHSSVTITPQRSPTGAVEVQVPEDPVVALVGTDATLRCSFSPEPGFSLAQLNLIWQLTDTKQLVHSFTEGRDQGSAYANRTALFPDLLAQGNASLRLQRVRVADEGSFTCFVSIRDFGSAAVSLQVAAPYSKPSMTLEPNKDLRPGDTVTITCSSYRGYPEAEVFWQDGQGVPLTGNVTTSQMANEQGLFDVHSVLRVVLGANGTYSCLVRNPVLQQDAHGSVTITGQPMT
The description is as above.

In a further experiment the target is monkey B7-H3-his protein (monkey). Described as above.
The next experiment deals with T4, rat B7-H3-his protein (rat, UniProt Q7TPB4 29-248, limits assumed).
T4 construct: not shown: His tag
T4 sequence (looked up): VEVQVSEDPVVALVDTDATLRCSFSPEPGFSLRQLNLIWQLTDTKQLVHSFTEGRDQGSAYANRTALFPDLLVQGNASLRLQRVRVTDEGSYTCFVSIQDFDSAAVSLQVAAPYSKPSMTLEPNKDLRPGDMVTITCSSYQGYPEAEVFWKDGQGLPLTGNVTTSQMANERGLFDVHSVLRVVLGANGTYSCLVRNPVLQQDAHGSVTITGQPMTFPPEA
As to the kind of experiment: BLI (ForteBio), ADC captured on Protein A sensor (result 2).

B1: ADC 17 (2#8890-B-03, DAR 8) (antibody, human IgG1, kappa, V domains shown)
VH: QVQLQESGPGLVQPSGTLSLTCAVSGGSDSSTNWWTWVRQSPGQGLEWIGEISPIGFTSYSPSLRSRVTISVDKSKTQFSLKLSSVTAADTAVYYCARDRLYFAFWGQGTLVTVSS
VL: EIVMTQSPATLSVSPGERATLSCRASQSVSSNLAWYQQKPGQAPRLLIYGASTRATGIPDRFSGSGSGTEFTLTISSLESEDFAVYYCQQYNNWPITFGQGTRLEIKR
modifications: cysteine sulfhydryls carry drug-linker B-03 (sites not stated; DAR 7.82 per antibody)
For B1, the EC50 (usually the midpoint of the concentration-response curve) in experiment [1] was 3.21 ng/mL; in experiment [2], 8.05 ng/mL. The Kd (as a rule, the constant that tells how readily two partners part at equilibrium) worked out at 42 nM in experiment [3], 1.04 nM in experiment [4] and 2.57 nM with monkey B7-H3-his protein. Besides, the binding result in the experiment with rat B7-H3-his protein is recorded as “no binding (tested: 200 nM (highest antigen concentration))”.
